Among the data in doi:10.1101/2025.09.25.678639, “The DND1–NANOS3 complex shapes the primordial germ cell transcriptome via a heptanucleotide sequence in mRNA 3′ UTRs” are Kd values, retold here.

As usually defined, the Kd is the constant that tells how readily two partners part at equilibrium.

The target in one data set is DND1 K196A;NANOS3 ZF+C (human;human, UniProt Q8IYX4;P60323 1-230;55-173, K196A|). Put plainly: MST; DND1 titrated, 2 uM NANOS3 ZF+C; MST: 20 mM HEPES pH 7.4, 150 mM NaCl, 1 mM DTT, 0.05% Tween20 and 10 ug/mL yeast tRNA after 1:1 mixing, 5 nM Cy5-RNA, partner 2 uM final, 30 min at room temperature, measured at 25 C. As to conditions: protein: recombinant;recombinant; tags: His6-SUMO removed by Ulp1;His6-SUMO removed by Ulp1; N-terminal Ser (residue 54) from BamHI site; copies: 1;1; label: 5'-Cy5.

A further data set has as its target T1, DND1 1-230 (RRM1-RRM2) (human, UniProt Q8IYX4 1-230).
T1 sequence: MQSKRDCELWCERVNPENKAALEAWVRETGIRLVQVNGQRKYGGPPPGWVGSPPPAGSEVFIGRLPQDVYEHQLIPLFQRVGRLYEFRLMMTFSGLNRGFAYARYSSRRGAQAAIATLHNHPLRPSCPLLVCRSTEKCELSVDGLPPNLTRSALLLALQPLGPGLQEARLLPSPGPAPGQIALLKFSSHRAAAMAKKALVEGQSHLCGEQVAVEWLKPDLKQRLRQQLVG
Put plainly: MST; MST: 20 mM HEPES pH 7.4, 150 mM NaCl, 1 mM DTT, 0.05% Tween20 and 10 ug/mL yeast tRNA after 1:1 mixing, 5 nM Cy5-RNA, partner 2 uM final, 30 min at room temperature, measured at 25 C. As to conditions: protein: recombinant; tags: His6-SUMO removed by Ulp1; N-terminal Ser (residue 0) from BamHI site; label: 5'-Cy5.

Data set [1] deals with DND1 1-230 (RRM1-RRM2);NANOS3 ZF+C (human;human, UniProt Q8IYX4;P60323 1-230;55-173, |). The data set can be described thus: MST; DND1 titrated, 2 uM NANOS3 ZF+C; MST: 20 mM HEPES pH 7.4, 150 mM NaCl, 1 mM DTT, 0.05% Tween20 and 10 ug/mL yeast tRNA after 1:1 mixing, 5 nM Cy5-RNA, partner 2 uM final, 30 min at room temperature, measured at 25 C. To be noted: protein: recombinant;recombinant; tags: His6-SUMO removed by Ulp1; N-terminal Ser (residue 0) from BamHI site;His6-SUMO removed by Ulp1; N-terminal Ser (residue 54) from BamHI site; copies: 1;1; label: 5'-Cy5.

Another data set deals with T2, DND1 13-230 (del1-12) (human, UniProt Q8IYX4 13-230, del1-12).
T2 sequence: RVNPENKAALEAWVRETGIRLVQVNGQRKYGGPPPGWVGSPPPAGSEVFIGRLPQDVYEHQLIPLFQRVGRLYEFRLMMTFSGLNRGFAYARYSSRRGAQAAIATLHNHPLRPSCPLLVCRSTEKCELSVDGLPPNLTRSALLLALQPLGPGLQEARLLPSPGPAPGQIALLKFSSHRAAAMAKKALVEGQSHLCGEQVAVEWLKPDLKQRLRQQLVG
The data set can be described thus: MST; MST: 20 mM HEPES pH 7.4, 150 mM NaCl, 1 mM DTT, 0.05% Tween20 and 10 ug/mL yeast tRNA after 1:1 mixing, 5 nM Cy5-RNA, partner 2 uM final, 30 min at room temperature, measured at 25 C. As to conditions: protein: recombinant; tags: His6-SUMO removed by Ulp1; label: 5'-Cy5.

The next data set deals with DND1 H189A;NANOS3 ZF+C (human;human, UniProt Q8IYX4;P60323 1-230;55-173, H189A|). The data set can be described thus: MST; DND1 titrated, 2 uM NANOS3 ZF+C; MST: 20 mM HEPES pH 7.4, 150 mM NaCl, 1 mM DTT, 0.05% Tween20 and 10 ug/mL yeast tRNA after 1:1 mixing, 5 nM Cy5-RNA, partner 2 uM final, 30 min at room temperature, measured at 25 C. As to conditions: protein: recombinant;recombinant; tags: His6-SUMO removed by Ulp1;His6-SUMO removed by Ulp1; N-terminal Ser (residue 54) from BamHI site; copies: 1;1; label: 5'-Cy5.

The target in another data set is DND1 F93A;NANOS3 ZF+C (human;human, UniProt Q8IYX4;P60323 1-230;55-173, F93A|). The data set is described as above. As to conditions: protein: recombinant;recombinant; tags: His6-SUMO removed by Ulp1;His6-SUMO removed by Ulp1; N-terminal Ser (residue 54) from BamHI site; copies: 1;1; label: 5'-Cy5.
The target of data set [2] is DND1 13-230 (del1-12);NANOS3 ZF (ZF1-ZF2) (human;human, UniProt Q8IYX4;P60323 13-230;55-113, del1-12|). The data set can be described thus: MST; DND1 titrated, 2 uM NANOS3 ZF; MST: 20 mM HEPES pH 7.4, 150 mM NaCl, 1 mM DTT, 0.05% Tween20 and 10 ug/mL yeast tRNA after 1:1 mixing, 5 nM Cy5-RNA, partner 2 uM final, 30 min at room temperature, measured at 25 C. As to conditions: protein: recombinant;recombinant; tags: His6-SUMO removed by Ulp1;His6-SUMO removed by Ulp1; N-terminal Ser (residue 54) from BamHI site; copies: 1;1; label: 5'-Cy5.
Sequence of DND1 13-230 (del1-12);NANOS3 ZF (ZF1-ZF2) (P60323 55-113, stated change not applied, chain 2 of 2, one chain of several): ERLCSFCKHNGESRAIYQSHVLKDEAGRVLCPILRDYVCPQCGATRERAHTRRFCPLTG

Sequence of DND1 1-230 (RRM1-RRM2);NANOS3 ZF+C (P60323 55-173, chain 2 of 2, one chain of several): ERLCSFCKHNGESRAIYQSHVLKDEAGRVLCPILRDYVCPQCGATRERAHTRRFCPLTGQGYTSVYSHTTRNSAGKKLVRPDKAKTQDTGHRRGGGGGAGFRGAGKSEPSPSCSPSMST
Sequence of DND1 K196A;NANOS3 ZF+C (Q8IYX4 1-230 K196A, chain 1 of 2): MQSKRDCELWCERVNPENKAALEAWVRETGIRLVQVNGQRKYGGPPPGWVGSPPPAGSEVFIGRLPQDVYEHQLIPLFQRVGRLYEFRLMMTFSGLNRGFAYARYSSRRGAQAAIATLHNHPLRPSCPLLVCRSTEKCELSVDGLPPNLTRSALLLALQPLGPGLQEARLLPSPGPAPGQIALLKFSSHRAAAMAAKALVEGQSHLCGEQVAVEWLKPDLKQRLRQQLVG
Sequence of DND1 K196A;NANOS3 ZF+C (P60323 55-173, chain 2 of 2): as the sequence (P60323 55-173, chain 2 of 2, one chain of several) above
Sequence of DND1 H189A;NANOS3 ZF+C (P60323 55-173, stated change not applied, one chain of several): as the sequence (P60323 55-173, chain 2 of 2, one chain of several) above
Sequence of DND1 F93A;NANOS3 ZF+C (Q8IYX4 1-230 F93A, chain 1 of 2): as the sequence (Q8IYX4 1-230 K196A, chain 1 of 2) above, with F93A, A196K counted along it
Sequence of DND1 F93A;NANOS3 ZF+C (P60323 55-173, chain 2 of 2): as the sequence (P60323 55-173, chain 2 of 2, one chain of several) above

B1: G3U (ssRNA)
RNA: AUAUUAAUUU
B1: the Kd with DND1 K196A;NANOS3 ZF+C came to 130 ± 20 nM.

B2: N3mut (ssRNA)
RNA: AUAUGACUCU
Regarding B2, the Kd came to 6.4 ± 3.8 µM in the data set with DND1 1-230 (RRM1-RRM2) and 2.7 ± 1.1 µM in data set [1].

B3: D1mut (ssRNA)
RNA: AUGCCAAUUU
Turning to B3, the figures for the Kd (with DND1 1-230 (RRM1-RRM2); in data set [1]) were 15 ± 4.7 µM and 15 ± 7.7 µM, respectively.

B4: CDK1 N3-DRE (Cy5) (ssRNA)
RNA: AUAUGAAUUU
For B4, the Kd with DND1 13-230 (del1-12) stood at 3.7 ± 1.4 µM; with DND1 H189A;NANOS3 ZF+C, 160 ± 50 nM; with DND1 F93A;NANOS3 ZF+C, 1100 ± 400 nM; in data set [2], 4 ± 2.4 µM.

B5: D1-N3mut (ssRNA)
RNA: AUGCCACUCU
Turning to B5, the Kd with DND1 1-230 (RRM1-RRM2) was found to be 11 ± 2.1 µM; in data set [1], 12 ± 3 µM.

B6: spacer (ssRNA)
RNA: AUAUGACCCAUUU
For B6, the Kd in the data set with DND1 1-230 (RRM1-RRM2) amounted to 8.2 ± 3.6 µM.

B7: G3A (ssRNA)
RNA: AUAUAAAUUU
Take B7: the Kd with DND1 K196A;NANOS3 ZF+C was 170 ± 40 nM.

B8: G3C (ssRNA)
RNA: AUAUCAAUUU
As to B8, the Kd with DND1 K196A;NANOS3 ZF+C was 310 ± 90 nM.
